Reference: paper PMC8574189, “Surface-induced dissociation of protein complexes on a cyclic ion mobility spectrometer†” (The Analyst, 2021)

Columns and labels:
[1] = molecular target: alcohol dehydrogenase tetramer (from saccharomyces cerevisiae) (saccharomyces cerevisiae) (UniProt P00330); assay: native MS; nanoelectrospray, 200 mM ammonium acetate, or charge-reduced in 160 mM ammonium acetate with 40 mM TEAA or EDDA; 5–10 μM protein complex; cyclic IMS (cIMS) and Synapt G2; TRAP with 14 equivalents of trp
[2] = molecular target: αβγHis heterotrimer of His-tagged toyocamycin nitrile hydratase (TNH); assay: as above
[3] = molecular target: streptavidin homotetramer (UniProt P22629); assay: as above
[4] = molecular target: T1, C-reactive protein pentamer, P02741; assay: as above; settings: remark: other sources report otherwise
T1 chain: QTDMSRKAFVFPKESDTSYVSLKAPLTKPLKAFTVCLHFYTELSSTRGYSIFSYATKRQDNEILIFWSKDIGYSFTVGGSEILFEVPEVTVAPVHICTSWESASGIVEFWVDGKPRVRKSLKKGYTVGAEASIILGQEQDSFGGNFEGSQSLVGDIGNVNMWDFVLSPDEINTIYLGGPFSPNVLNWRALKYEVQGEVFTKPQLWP

[5] = molecular target: the molecule itself; assay: as above
native MS = molecular target: the molecule itself; assay: native MS

alcohol dehydrogenase tetramer (from saccharomyces cerevisiae) (from UniProt P00330 1-348) (enzyme)
stoichiometry N [1]: 4

αβγHis heterotrimer of His-tagged toyocamycin nitrile hydratase (TNH) (complex)
stoichiometry N [2]: 2

streptavidin homotetramer (from UniProt P22629 25-183) (natural protein)
stoichiometry N [3]: 4

B1: C-reactive protein pentamer, P02741 19-224 (natural protein)
chain: T1 chain
stoichiometry N [4]: 5

B2: trp RNA binding attenuation protein (TRAP) homo-11mer (natural protein, UniProt Q9X6J6 1-74, looked up)
chain: MYTNSDFVVIKALEDGVNVIGLTRGADTRFHHSEKLDKGEVLIAQFTEHTSAIKVRGKAYIQTRHGVIESEGKK
notes: 91 kDa homo-11mer; it could be B. subtilis; also called holoTRAP; source: obtained from the Foster group (The Ohio State University) and the Gollnick group (State University of NY, Buffalo); copies: 11
stoichiometry N [5]: 11

B3: phosphorylase B dimer from rabbit muscle (enzyme, UniProt P00489 1-843, looked up)
chain: MSRPLSDQEKRKQISVRGLAGVENVTELKKNFNRHLHFTLVKDRNVATPRDYYFALAHTVRDHLVGRWIRTQQHYYEKDPKRIYYLSLEFYMGRTLQNTMVNLALENACDEATYQLGLDMEELEEIEEDAGLGNGGLGRLAACFLDSMATLGLAAYGYGIRYEFGIFNQKICGGWQMEEADDWLRYGNPWEKARPEFTLPVHFYGRVEHTSQGAKWVDTQVVLAMPYDTPVPGYRNNVVNTMRLWSAKAPNDFNLKDFNVGGYIQAVLDRNLAENISRVLYPNDNFFEGKELRLKQEYFVVAATLQDIIRRFKSSKFGCRDPVRTNFDAFPDKVAIQLNDTHPSLAIPELMRVLVDLERLDWDKAWEVTVKTCAYTNHTVLPEALERWPVHLLETLLPRHLQIIYEINQRFLNRVAAAFPGDVDRLRRMSLVEEGAVKRINMAHLCIAGSHAVNGVARIHSEILKKTIFKDFYELEPHKFQNKTNGITPRRWLVLCNPGLAEIIAERIGEEYISDLDQLRKLLSYVDDEAFIRDVAKVKQENKLKFAAYLEREYKVHINPNSLFDVQVKRIHEYKRQLLNCLHVITLYNRIKKEPNKFVVPRTVMIGGKAAPGYHMAKMIIKLITAIGDVVNHDPVVGDRLRVIFLENYRVSLAEKVIPAADLSEQISTAGTEASGTGNMKFMLNGALTIGTMDGANVEMAEEAGEENFFIFGMRVEDVDRLDQRGYNAQEYYDRIPELRQIIEQLSSGFFSPKQPDLFKDIVNMLMHHDRFKVFADYEEYVKCQERVSALYKNPREWTRMVIRNIATSGKFSSDRTIAQYAREIWGVEPSRQRLPAPDEKIP
notes: glycogen phosphorylase b from rabbit muscle; 195 kDa dimer; also called PHB; source: from rabbit muscle, bought: Sigma Aldrich (lyophilized powder)
stoichiometry N [5]: 2

B4: cholera toxin B homopentamer (natural protein)
chain: TPQNITDLCAEYHNTQIYTLNDKIFSYTESLAGKREMAIITFKNGAIFQVEVPGSQHIDSQKKAIERMKDTLRIAYLTEAKVEKLCVWNNKTPHAIAAISMAN
notes: also called 58 kDa cholera toxin B homopentamer
stoichiometry N (native MS): 5
